B1: ORF3a protein (SARS-CoV-2), P0DTC3 (parent)
chain: MDLFMRIFTIGTVTLKQGEIKDATPSDFVRATATIPIQASLPFGWLIVGVALLAVFQSASKIITLKKRWQLALSKGVHFVCNLLLLFVTVYSHLLLVAAGLEAPFLYLYALVYFLQSINFVRIIMRLWLCWKCRSKNPLLYDANYFLCWHTNCYDYCIPYNSVTSSIVITSGDGTTSPISEHDYQIGGYTEKWESGVKDCVVLHSYFTSDYYQLYSTQLSTDTGVEHVTFFIYNKIVDEPEEHVQIHTIDGSSGVVNPVMEPIYDEPTTTTSVPL
partner: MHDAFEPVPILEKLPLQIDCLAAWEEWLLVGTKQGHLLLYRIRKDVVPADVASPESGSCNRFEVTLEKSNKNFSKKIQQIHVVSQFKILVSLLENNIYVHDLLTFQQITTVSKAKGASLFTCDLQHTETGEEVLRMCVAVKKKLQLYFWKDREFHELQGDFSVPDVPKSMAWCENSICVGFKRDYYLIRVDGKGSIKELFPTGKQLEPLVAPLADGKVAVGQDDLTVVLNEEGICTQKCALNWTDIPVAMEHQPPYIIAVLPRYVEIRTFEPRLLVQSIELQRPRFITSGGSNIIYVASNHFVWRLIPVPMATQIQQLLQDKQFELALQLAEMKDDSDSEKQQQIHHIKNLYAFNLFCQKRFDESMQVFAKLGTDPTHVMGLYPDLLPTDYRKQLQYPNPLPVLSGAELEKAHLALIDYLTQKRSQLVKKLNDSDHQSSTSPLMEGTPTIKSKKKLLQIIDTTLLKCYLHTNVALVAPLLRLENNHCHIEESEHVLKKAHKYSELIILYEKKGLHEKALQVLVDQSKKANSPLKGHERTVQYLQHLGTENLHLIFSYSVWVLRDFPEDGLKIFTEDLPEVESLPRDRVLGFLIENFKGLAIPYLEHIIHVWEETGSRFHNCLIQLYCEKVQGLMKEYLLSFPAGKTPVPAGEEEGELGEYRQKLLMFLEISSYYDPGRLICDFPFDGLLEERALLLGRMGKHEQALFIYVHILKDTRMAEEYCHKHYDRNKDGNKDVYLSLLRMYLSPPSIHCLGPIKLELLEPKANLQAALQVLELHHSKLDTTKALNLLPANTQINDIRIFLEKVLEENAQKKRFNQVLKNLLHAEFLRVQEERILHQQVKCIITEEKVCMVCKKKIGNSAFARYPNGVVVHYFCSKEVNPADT

Variants of: B1
Details: with vps39_human VPS39, Q96JC1

Row | Variant | effect of a mutation on the interaction
1 | Y160A | disrupting interaction strength
